From patent US20220089642A1

Molecular target: SARS-CoV1

## Fc-ACE2 full length construct (Fc fusion)
  Kd: 1.84 nM
  koff: 0.000435 s⁻¹
  kon: 237000 M⁻¹ s⁻¹
